Where no end group is shown, it is not given here. [ ]: non-standard residue; d: D form. pT = C[C@@H](OP(=O)(O)O)[C@H](N)C(=O)O
target: T1, HLA-A*02:01 (human); assay: UV-ligand exchange, anti-β2m ELISA; grade of peptide exchange yield (legend: ≥75% = ++++)
T1 construct: MHC class I monomer in the UV-ligand exchange assay, captured on streptavidin plates; also called peptide-receptive MHC molecules
Source text: (§1) Candidate peptides for T cell based therapies according to the present invention were further tested for their MHC binding capacity (affinity). The individual peptide-MHC complexes were produced by UV-ligand exchange, where a UV-sensitive peptide is cleaved upon UV-irradiation, and exchanged with the peptide of interest as analyzed. Only peptide candidates that can effectively bind and stabilize the peptide-receptive MHC molecules prevent dissociation of the MHC complexes. To determine the yield of the exchange reaction, an ELISA was performed based on the detection of the light chain (β2m) of stabilized MHC complexes. The assay was performed as generally described in Rodenko et al. (Rodenko et al., 2006).
(§2) 96 well MAXISorp plates (NUNC) were coated over night with 2 ug/ml streptavidin in PBS at room temperature, washed 4× and blocked for 1 h at 37° C. in 2% BSA containing blocking buffer. Refolded HLA-A*02:01/MLA-001 monomers served as standards, cov-ering the range of 15-500 ng/ml. Peptide-MHC monomers of the UV-exchange reaction were diluted 100-fold in blocking buffer. Samples were incubated for 1 h at 37° C., washed four times, incubated with 2 ug/ml HRP conjugated anti-β2m for 1 h at 37° C., washed again and detected with TMB solution that is stopped with NH2SO4. Absorp-tion was measured at 450 nm. Candidate peptides that show a high exchange yield (preferably higher than 50%, most preferred higher than 75%) are generally preferred for a generation and production of antibodies or fragments thereof, and/or T cell receptors or fragments thereof, as they show sufficient avidity to the MHC molecules and prevent dissociation of the MHC complexes.

peptide exchange yield [%] | Binder
≥ 75 | GLLGFQAEA [GLLGFQAEA (SEQ ID NO: 24, MAGED1)]
≥ 75 | FIIPTVATA [FIIPTVATA (SEQ ID NO: 7, ABCC11)]
≥ 75 | SLFSVPFFL [SLFSVPFFL (SEQ ID NO: 28, TM9SF1)]
≥ 75 | TLLGLAVNV [TLLGLAVNV (SEQ ID NO: 36, CHPT1)]
≥ 75 | FLVEHVLTL [FLVEHVLTL (SEQ ID NO: 42, SLC39A6)]
≥ 75 | SLLSEIQAL [SLLSEIQAL (SEQ ID NO: 35, AKAP9, PCNT)]

The next lines start with the binder.

Binder | peptide exchange yield [%]
KLLDMELEM [KLLDMELEM (SEQ ID NO: 39, FAH)] | ≥ 75
SMMGLLTNL [SMMGLLTNL (SEQ ID NO: 16, ESR1)] | ≥ 75
LLM[pT]VAGLKL [LLMUVAGLKL (SEQ ID NO: 38, PCNXL3)] | ≥ 75
GLVQSLTSI [GLVQSLTSI (SEQ ID NO: 8, ABCC11)] | ≥ 75

target: T1, HLA-A*02:01; assay: UV-ligand exchange, anti-β2m ELISA; grade of peptide exchange yield (legend: ≥20% = ++)
Source text: as §1, §2

peptide exchange yield [%] | Binder
20 to 50 | ILFDVVVFL [ILFDVVVFL (SEQ ID NO: 25, C4orf3)]
20 to 50 | SLVEGEAVHLA [SLVEGEAVHLA (SEQ ID NO: 4, TFAP2E, TFAP2A, TFAP2B, TFAP2C)]
20 to 50 | GLSYIYNTV [GLSYIYNTV (SEQ ID NO: 31, COG6)]
20 to 50 | ILTELPPGV [ILTELPPGV (SEQ ID NO: 33, ZNF407)]
20 to 50 | TIASSIEKA [TIASSIEKA (SEQ ID NO: 17, STPG2)]

The remaining lines, values behind:

Binder | peptide exchange yield [%]
ALEEQLHQV [ALEEQLHQV (SEQ ID NO: 19, KRT25, KRT28, KRT27)] | 20 to 50
FLSSEAANV [FLSSEAANV (SEQ ID NO: 30, TNFAIP2)] | 20 to 50
KAFPFYNTV [KAFPFYNTV (SEQ ID NO: 12, NAIP)] | 20 to 50
GLLPTSVSPRV [GLLPTSVSPRV (SEQ ID NO: 11, SCUBE2)] | 20 to 50
ALNPVIYTV [ALNPVIYTV (SEQ ID NO: 5, DRD4)] | 20 to 50
KLYEGIPVL [KLYEGIPVL (SEQ ID NO: 13, NEK10)] | 20 to 50

target: T1, HLA-A*02:01; assay: UV-ligand exchange, anti-β2m ELISA; grade of peptide exchange yield (legend: ≥50 = +++)
Source text: as §1, §2

peptide exchange yield [%] | Binder
50 to 75 | FLDEEVKLI [FLDEEVKLI (SEQ ID NO: 43, FTL)]
50 to 75 | SLFPSLVVV [SLFPSLVVV (SEQ ID NO: 15, PLEC)]
50 to 75 | GLVATLQSL [GLVATLQSL (SEQ ID NO: 32, IFI6)]
50 to 75 | KMPEHISTV [KMPEHISTV (SEQ ID NO: 1, CILP)]
50 to 75 | ALTALQNYL [ALTALQNYL (SEQ ID NO: 6, TFAP2B)]
50 to 75 | GLHSLPPEV [GLHSLPPEV (SEQ ID NO: 10, LRRC8E)]
50 to 75 | SLAWDVPAA [SLAWDVPAA (SEQ ID NO: 26, FASN)]

The next lines start with the binder.

Binder | peptide exchange yield [%]
SLAEPRVSV [SLAEPRVSV (SEQ ID NO: 27, FASN)] | 50 to 75
YILLQSPQL [YILLQSPQL (SEQ ID NO: 18, MUC6)] | 50 to 75
KQLELELEV [KQLELELEV (SEQ ID NO: 14, MUC6)] | 50 to 75
SLLTEPALV [SLLTEPALV (SEQ ID NO: 21, TBC1D9)] | 50 to 75
SLNDQGYLL [SLNDQGYLL (SEQ ID NO: 41, MCM8)] | 50 to 75
FSFPVSVGV [FSFPVSVGV (SEQ ID NO: 20, DUSP4)] | 50 to 75
YIDGLESRV [YIDGLESRV (SEQ ID NO: 22, CREB3L4)] | 50 to 75
ALAGSSPQV [ALAGSSPQV (SEQ ID NO: 2, CNTD2)] | 50 to 75
ALEA[pT]QLYL [ALEAUQLYL (SEQ ID NO: 29, DEPDC4)] | 50 to 75
FMSKLVPAI [FMSKLVPAI (SEQ ID NO: 9, TPRG1)] | 50 to 75
SLADAVEKV [SLADAVEKV (SEQ ID NO: 23, CCDC122)] | 50 to 75
